Results: paper PMC3164632

Biological target: West Nile virus envelope (E) protein (West Nile virus)

With “Aedes aegypti pupal cuticle (PC) protein (AAEL011045) (natural protein)” the survival of mice injected i.p. with WNV pre-incubated with PC protein for an hour at 37°C (against WNV alone, all of which died within 14 days p.i.) was 60%.
